From publication PMC9054930 (RSC Advances, 2020) come the findings set out here.

The experiment concerns the target alpha fetal protein (AFP) (Homo sapiens, UniProt P02771). The experiment in a line: ELISA. Background: An ELISA detects its analyte on a solid surface through an enzyme-linked reagent.

Sequence of alpha fetal protein (AFP) (P02771 19-609): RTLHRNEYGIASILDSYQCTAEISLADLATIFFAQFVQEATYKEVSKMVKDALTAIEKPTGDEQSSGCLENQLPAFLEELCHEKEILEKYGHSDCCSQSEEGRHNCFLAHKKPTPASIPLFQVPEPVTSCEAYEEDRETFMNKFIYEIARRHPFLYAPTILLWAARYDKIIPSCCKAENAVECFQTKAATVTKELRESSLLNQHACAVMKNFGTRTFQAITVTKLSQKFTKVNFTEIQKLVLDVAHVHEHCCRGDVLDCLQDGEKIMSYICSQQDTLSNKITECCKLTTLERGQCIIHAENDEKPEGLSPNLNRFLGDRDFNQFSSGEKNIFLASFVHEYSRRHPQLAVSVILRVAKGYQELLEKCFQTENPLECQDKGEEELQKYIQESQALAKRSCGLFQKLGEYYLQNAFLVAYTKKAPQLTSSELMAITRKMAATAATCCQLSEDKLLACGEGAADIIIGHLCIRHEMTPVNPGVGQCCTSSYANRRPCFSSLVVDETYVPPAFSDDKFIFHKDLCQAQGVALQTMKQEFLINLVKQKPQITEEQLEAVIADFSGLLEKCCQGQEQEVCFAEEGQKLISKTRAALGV

B1: anti-AFP nanobody A2, phage-displayed (VHH)
VHH: QVQLVESGGGLVQAGGSLGLSCAASGLGFSIVAGGWFRQAPGKERELVAAIGTGTGDINYGDSVKGRFTISSDSAKNTVYLQMNSLKPEDTAVYFCATTERYYTGSYDSRARPQSYGYWGQGTQVTVSS
In the case of B1, the binding result was “binds”.

B2: anti-AFP nanobody A1, phage-displayed (VHH)
VHH: QVQLVESGGGLVQSGGSLRLSCAASMRGFRIVAGGWYRQSPGKQRELVADINYQDDTNYGDFVKGRFTISRDSAKNTLYLQMNSLKPEDTAVYYCSALSVIGNEFWGQGTQVTVSS
For B2, the binding result was “binds”.
